B1: SpS1-C1 (ssDNA)
DNA: GAACATTGGCGTCCGTGAGTGAGACCATAGTCCAGCGAACTAAACCTACCCTAAAGGGCAAGGAAGACGGGCACTTCCTCAAACGCCCAA
B2: SpS1-C4 (ssDNA)
DNA: GAACATTGGCGTCCGTGAGCAGCTCGTGGTTGTTTGCTTGTATACTTTTGTGGTTTATCTTGTTTCTGATCACTTCCTCAAACGCCCAA

Molecular target: SARS-CoV-2 spike S1 subunit (SARS-CoV-2, UniProt P0DTC2 14-685)
Experiment: bead-based fluorescence

Binder | binding result
B1 | binds
B2 | binds

Reference: paper PMC9993738
